According to PMC4520770:

Key:
Assay in all cases: fluorescence polarisation
KL6-7_D3fA = target: KL6-7_D3fA
BL6-22_Y4eK = target: BL6-22_Y4eK
Bim_A2eT_E2gG = Bim_A2eT_E2gG (UniProt O43521)
Bim_A2eT = Bim_A2eT (UniProt O43521)
KL6-7_Y4eK = target: KL6-7_Y4eK
Bim_R3bS = Bim_R3bS (UniProt O43521)
[1] = target: Bim BH3 peptide (23 residues, fluoresceinated) (UniProt O43521)

Sequence of Bcl-w (human), c-myc-tagged (Q92843 whole entry): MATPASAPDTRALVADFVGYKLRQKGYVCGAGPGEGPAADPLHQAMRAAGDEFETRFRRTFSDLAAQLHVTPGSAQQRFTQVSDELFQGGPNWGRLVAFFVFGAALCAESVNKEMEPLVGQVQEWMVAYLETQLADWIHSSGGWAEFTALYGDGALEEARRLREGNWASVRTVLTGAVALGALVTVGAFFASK
Sequence of Bfl-1 (human), c-myc-tagged (Q16548 whole entry): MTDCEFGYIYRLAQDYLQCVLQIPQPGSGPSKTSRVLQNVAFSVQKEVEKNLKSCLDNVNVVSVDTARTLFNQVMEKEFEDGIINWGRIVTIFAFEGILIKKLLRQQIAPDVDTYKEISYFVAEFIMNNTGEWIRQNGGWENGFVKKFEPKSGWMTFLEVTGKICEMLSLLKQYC

## BHRF1 (Epstein-Barr virus Bcl-2 homolog), c-myc-tagged (from UniProt P03182 1-191) (natural protein)
KL6-7_D3fA
  Kd: > 1000 nM
BL6-22_Y4eK
  Kd: 30 nM
Bim_A2eT_E2gG
  Kd: > 1000 nM
Bim_A2eT
  Kd: 64 nM
KL6-7_Y4eK
  Kd: > 1000 nM

## Bcl-2 (human), c-myc-tagged (from UniProt P10415 1-239) (natural protein)
Bim_A2eT_E2gG
  Kd: 150 nM
Bim_R3bS
  Kd: 7.2 nM
Bim_A2eT
  Kd: 44 nM

## Bcl-w (human), c-myc-tagged (from UniProt Q92843 1-193) (natural protein)
Bim_A2eT_E2gG
  Kd: 98 nM
Bim_R3bS
  Kd: 18 nM
Bim_A2eT
  Kd: 40 nM

## Bcl-xL (human), c-myc-tagged (from UniProt Q07817-1 1-233) (natural protein)
Bim_A2eT_E2gG
  Kd: 42 nM
Bim_R3bS
  Kd: 3.8 nM
Bim_A2eT
  Kd: 18 nM

## Bfl-1 (human), c-myc-tagged (from UniProt Q16548 1-175) (natural protein)
Bim_A2eT_E2gG
  Kd: 260 nM
Bim_R3bS
  Kd: 5.2 nM
Bim_A2eT
  Kd: 32 nM

## KSBcl-2 (Kaposi's sarcoma-associated herpesvirus Bcl-2 homolog), c-myc-tagged (from UniProt P90504 1-175) (natural protein)
Bim_A2eT_E2gG
  Kd: 1.1 nM
Bim_R3bS
  Kd: 1.5 nM
Bim_A2eT
  Kd: 1.8 nM

## M11 (murine gamma herpesvirus γHV68 Bcl-2 homolog), BAP- and His6-tagged (from UniProt P89884 1-171) (natural protein)
Bim_A2eT_E2gG
  Kd: 15 nM
Bim_A2eT
  Kd: 78 nM

## Mcl-1 (human), c-myc-tagged (from UniProt Q07820 1-350) (natural protein)
KL6-7_D3fA
  Kd: > 5000 nM
[1]
  Kd: < 1 nM
Bim_A2eT_E2gG
  Kd: 1.6 nM
Bim_R3bS
  Kd: < 1 nM
Bim_A2eT
  Kd: 0.62 nM
KL6-7_Y4eK
  Kd: 7800 nM
